Measured values published in article PMC6777938, “Evolutionary emergence of Hairless as a novel component of the Notch signaling pathway” (eLife, 2019).

Target: T1, GST-tagged Drosophila Su(H) (Drosophila melanogaster, UniProt P28159 1-594)
T1 construct: Suppressor of Hairless [Su(H)], Drosophila melanogaster; construct GST-Su(H) pGEX-KG of Bailey and Posakony, 1995; also called GST-Su(H); Suppressor of Hairless; source: E. coli, isolated, on Sepharose beads
Assay: pull-down; in vitro; Sepharose beads bearing GST-Su(H) or only GST, His-tagged Hairless or S-CAP segments in solution; Ptep S-CAP also at 10X input
Conditions: both partners purified

T1 sequence (P28159 whole entry): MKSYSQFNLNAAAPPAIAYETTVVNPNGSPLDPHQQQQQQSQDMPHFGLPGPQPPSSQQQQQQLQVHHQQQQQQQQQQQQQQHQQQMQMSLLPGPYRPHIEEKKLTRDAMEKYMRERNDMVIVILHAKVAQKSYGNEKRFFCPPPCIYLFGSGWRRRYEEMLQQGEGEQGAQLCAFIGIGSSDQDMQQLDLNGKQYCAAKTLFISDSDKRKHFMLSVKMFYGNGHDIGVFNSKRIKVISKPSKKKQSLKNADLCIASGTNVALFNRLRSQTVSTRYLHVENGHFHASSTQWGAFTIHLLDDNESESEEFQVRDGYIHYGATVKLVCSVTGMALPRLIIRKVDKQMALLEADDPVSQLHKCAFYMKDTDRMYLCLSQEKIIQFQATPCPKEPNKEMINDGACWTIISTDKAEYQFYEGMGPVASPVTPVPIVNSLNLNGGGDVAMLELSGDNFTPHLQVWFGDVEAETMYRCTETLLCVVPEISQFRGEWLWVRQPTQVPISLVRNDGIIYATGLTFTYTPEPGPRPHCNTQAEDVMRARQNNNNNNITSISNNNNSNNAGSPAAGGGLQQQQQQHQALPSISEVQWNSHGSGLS

| Binder | binding result |
| --- | --- |
| His-tagged Drosophila melanogaster Hairless residues 192-389, wild type (domain or fragment, 198 residues, fits 192-389 and L235, F237, L245, L247, W258; the printed DNA starts with linker codons R-W-I-R before the insert; also called HIS-H192-389 WT; Dmel Hairless192-389 WT; source: E. coli (codon-optimized for expression in E. coli, pRSET-C), isolated) AVVAAAAGTAKIGKGSNSGGSFDMGRTPISTHGNNSWGGYGGRLQFFKDGKFILELARSKDGDKSGWVSVTRKTFRPPSAATSATVTPTSAVTTAYPKNENSTSLSFSDDNSSIQSSPWQRDQPWKQSRPRRGISKELSLFFHRPRNSTLGRAALRTAARKRRRPHEPLTTSEDQQPIFATAIKAENGDDTLKAEAAE | binds |
| His-tagged Parasteatoda tepidariorum S-CAP residues 233-432, wild type (domain or fragment, 200 residues, fits 233-432; Su(H)-Co-repressor Adaptor Protein (S-CAP), house spider Parasteatoda tepidariorum, residues 233-432 with the SBD-like motif; same vector and leader as m9; also called HIS-PtepSCAP233-432 WT; Ptep s-CAP233-432 WT; source: E. coli (codon-optimized for expression in E. coli, pRSET-C), isolated) TVNTEDPPKDSINFLDHSRVTDPCSAASETSLPQDVPATSTVGSLKFFLGGRLVLKLNAQQDGGSGNKCQWVQSNDLPKHSNHNKKDKHKKKFAPYSYSSSGTQKPLKKGDDTSAVPDCDPSGIKKPRLKEYETSENSALGLLLCSSSWTPPVADGQESIDVDDTSSKTSEGYISPILSNNSRTSKIDTIKHDFASNPNT | binds |
